{"source": "paper doi:10.1101/2025.08.28.672897", "target": "μ opioid receptor (MOR) (human) (UniProt P35372)", "sequence (P35372 whole entry)": "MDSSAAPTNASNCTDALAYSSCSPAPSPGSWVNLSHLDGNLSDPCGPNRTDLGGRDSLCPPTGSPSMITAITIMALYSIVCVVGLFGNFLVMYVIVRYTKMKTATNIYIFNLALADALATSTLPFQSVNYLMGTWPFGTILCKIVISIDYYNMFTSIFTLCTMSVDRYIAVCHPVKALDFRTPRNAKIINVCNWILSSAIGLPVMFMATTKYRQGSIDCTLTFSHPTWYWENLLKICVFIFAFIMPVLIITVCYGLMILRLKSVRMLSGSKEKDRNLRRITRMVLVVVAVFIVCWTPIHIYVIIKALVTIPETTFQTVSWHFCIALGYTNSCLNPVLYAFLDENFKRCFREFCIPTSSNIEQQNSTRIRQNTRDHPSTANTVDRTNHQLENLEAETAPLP", "data": [{"substance": "DAMGO (peptide)", "values": [{"measurement": "TRUPATH BRET2, Ggust activation, 0 mM sodium, pEC50", "result": 10.2, "unit": "pEC50"}, {"measurement": "TRUPATH BRET2, Ggust activation, 140 mM sodium, pEC50", "result": 9.57, "unit": "pEC50"}, {"measurement": "TRUPATH BRET2, Gi1 activation, 0 mM sodium, pEC50", "result": 9.01, "unit": "pEC50"}, {"measurement": "TRUPATH BRET2, Gi1 activation, 140 mM sodium, pEC50", "result": 7.55, "unit": "pEC50"}, {"measurement": "TRUPATH BRET2, Gi2 activation, 0 mM sodium, pEC50", "result": 9.97, "unit": "pEC50"}, {"measurement": "TRUPATH BRET2, Gi2 activation, 140 mM sodium, pEC50", "result": 9.17, "unit": "pEC50"}, {"measurement": "TRUPATH BRET2, Gi3 activation, 0 mM sodium, pEC50", "result": 9.43, "unit": "pEC50"}, {"measurement": "TRUPATH BRET2, Gi3 activation, 140 mM sodium, pEC50", "result": 8.12, "unit": "pEC50"}, {"measurement": "TRUPATH BRET2, GoA activation, 0 mM sodium, pEC50", "result": 9.82, "unit": "pEC50"}, {"measurement": "TRUPATH BRET2, GoA activation, 140 mM sodium, pEC50", "result": 9.08, "unit": "pEC50"}, {"measurement": "TRUPATH BRET2, GoB activation, 0 mM sodium, pEC50", "result": 9.77, "unit": "pEC50"}, {"measurement": "TRUPATH BRET2, GoB activation, 140 mM sodium, pEC50", "result": 8.52, "unit": "pEC50"}, {"measurement": "TRUPATH BRET2, Gz activation, 0 mM sodium, pEC50", "result": 9.66, "unit": "pEC50"}, {"measurement": "TRUPATH BRET2, Gz activation, 140 mM sodium, pEC50", "result": 8.82, "unit": "pEC50"}]}]}
